Source: patent US5728677, “Methods of inhibiting T-cell dependent proliferation of peripheral blood lymphocytes using the CD2-binding domain of lymphocyte function associated antigen 3” (Biogen, Inc., dated 1998)
Blank lines part the entries; values can stand above or below the molecule they belong to.

How the values were obtained:
[1] = biological target: T1, CD2 (human, UniProt P06729)
[2] = biological target: T1, CD2; remark: listed apart in the source
Target sequence in this assay (P06729 25-351): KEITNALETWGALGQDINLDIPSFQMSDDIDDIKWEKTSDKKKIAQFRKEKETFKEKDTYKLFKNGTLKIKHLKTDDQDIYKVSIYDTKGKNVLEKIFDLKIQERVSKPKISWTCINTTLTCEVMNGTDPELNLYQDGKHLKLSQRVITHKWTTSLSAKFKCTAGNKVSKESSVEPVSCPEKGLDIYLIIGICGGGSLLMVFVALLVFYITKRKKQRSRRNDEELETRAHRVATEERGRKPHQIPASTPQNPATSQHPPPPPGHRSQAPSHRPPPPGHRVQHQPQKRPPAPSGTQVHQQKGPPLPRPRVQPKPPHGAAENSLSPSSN

[3] = biological target: T1, CD2; test: Jurkat cell binding assay, microscopy
Procedure: M57/CHO cells, P24/CHO cells and CHO cells (1 ×10^5) were added to separate wells of a 6-well plate (Corning) and washed twice with RPMI Complete Medium. Jurkat cells (CD2^+), obtained as a gift from Dr. Timothy Springer (Dana Farber Cancer Inst., Boston, Mass.) were washed three times with a solution of RPMI, 10% FCS, 4 mM L-glutamine, and then 5 ×10^6 cells were added to each well and incubated for 4 hours at 0° C. Cells were then washed gently three times with RPMI and examined under the microscope at 40X and 100X magnification for cell-cell binding.
The M100/CHO, M101/CHO and M102/CHO transfectants were subjected to a Jurkat cell binding assay, as described in Example 4 above.

Molecule: anti-CD2 monoclonal antibody TS2/18
inhibition of PHA dependent PBL proliferation, optimal PHA [1]: 20%

B1: M101 deletion mutant of LFA-3 (ligand)
chain: FSQQIYGVVYGNVTFHVPSNVPLKEVLWKKQKDKVAELENSEFRAFSSFKNRVYLDTVSGSLTIYNLTSSWDCPMEQCKRNSTSIYFKMENDLPQKIQCTLSNPLFNTTSSIILTTCIPSSGHSRHRYALIPIPLAVITTCIVLYMNGILKCDRKPDRTNSN
binding result [3]: binds

B3: M100 deletion mutant of LFA-3 (ligand)
chain: FSQQIYGVVYDEDEYEMESPNITDTMKFFLYVLESLPSPTLTCALTNGSIEVQCMIPEHYNSHRGLIMYSWDCPMEQCKRNSTSIYFKMENDLPQKIQCTLSNPLFNTTSSIILTTCIPSSGHSRHRYALIPIPLAVITTCIVLYMNGILKCDRKPDRTNSN
binding result [3]: no binding

Now from value to molecule:

inhibition of PHA dependent PBL proliferation, optimal PHA [1]: 41%
inhibition of PHA dependent PBL proliferation, suboptimal PHA (0.1 µg/ml) [2]: 70%
Molecule: LFA3TIP (Fc fusion)

binding result [3]: binds
B2: M102 deletion mutant of LFA-3 (ligand)
chain: FSQQIYGVVYGNVTFHVPSNVPLKEVLWKKQKDKVAELENSEFRAFSSFKNRVYLDTVSGSLTIYNLTSSDEDEYEMESPNITDTMKFFLYVLESLPSPTLTCALTNGSIEVQCMIPEHYNSHRGLIMYSSGHSRHRYALIPIPLAVITTCIVLYMNGILKCDRKPDRTNSN

binding result [3]: no binding
B4: M57 deletion mutant of LFA-3 (ligand)
chain: FSQQIYGVVYGNVTFHVPSNVPLKEVLWKKQKDKVAELENSEFRAFSSFKSLTIYNLTSSDEDEYEMESPNITDTMKFFLYVLESLPSPTLTCALTNGSIEVQCMIPEHYNSHRGLIMYSWDCPMEQCKRNSTSIYFKMENDLPQKIQCTLSNPLFNTTSSIILTTCIPSSGHSRHRYALIPIPLAVITTCIVLYMNGILKCDRKPDRTNSN
